According to publication PMC10816394, “Radiosynthesis and Bioevaluation of ^99mTc-Labeled Isocyanide Ubiquicidin 29-41 Derivatives as Potential Agents for Bacterial Infection Imaging” (International Journal of Molecular Sciences, 2024):
No end group written: not given here.

Key:
S. aureus-infected mice [1] = experiment: SPECT imaging in bacterial infection mice; assay type: in vivo; details: S. aureus in left forelimb muscle, 30~37 MBq tail vein, imaging at 30, 120 and 240 min p.i., n = 2
Method: The bacterial-infected mouse model was generated as follows: 100 μL of bacterial suspension containing approximately 1 × 10^8 CFU/mL (for S. aureus) was injected into the left forelimb muscle of the same mice. […] One hundred microliters of [^99mTc]Tc-CN5UBI 29-41 (30~37 MBq) was injected intravenously into each bacterially infected mouse via the tail vein (n = 2). […] The SPECT/CT images were reconstructed with HiSPECT 3.2.0 software (Bioscan, Washington, DC, USA) and processed with VivoQuant 2.5 software (Invicro, Needham, MA, USA).

[2] = test system: turpentine-oil-inflamed mice; experiment: Biodistribution in mice with turpentine-induced abscesses (sterile inflammation); details: tail vein injection, 120 min p.i., mean ± SD, n = 5
Method: The sterile inflammation mouse model was constructed as follows: turpentine oil (0.1 mL) was injected into the left thigh muscle of female Kunming mice (18–22 g). […] Each mouse was injected with 0.1 mL of [^99mTc]Tc-CN5UBI 29-41 (3.7 MBq/mL) via the tail vein. The mice were sacrificed under anesthesia with 1.5% isoflurane at 120 min postinjection. The organs of interest (the inflamed muscle in the left thigh, normal muscle in the right thigh, blood, heart, liver, lung, kidney, spleen, stomach, bone, small intestine and large intestine) were collected, weighed and measured by a γ-counter. The results are expressed as the percentage of the injected dose per gram of tissue ± standard deviation (%ID/g ± SD). After the mice were sacrificed, the tissues containing the thyroid around the trachea in the neck were collected and measured. The results are expressed as the percentage of the injected dose ± standard deviation (%ID ± SD).

S. aureus-infected mice [3] = test system: S. aureus-infected mice; parameters: species or system female Kunming mice; details: mouse, in vivo
Method: Bacterial infection mouse models were constructed as follows: S. aureus (ATCC 25923) was cultured in a liquid medium at 37 °C for approximately 24 h, washed with PBS (pH 7.4) and diluted to obtain a suspension of 1 × 10^8 CFU/mL. […] The mice were sacrificed with isoflurane anesthesia at 120 min postinjection. […] To evaluate the metabolic properties of [^99mTc]Tc-CN5UBI 29-41, biodistribution studies were carried out in mice infected with S. aureus at 30, 120 and 240 min.

[4] = assay type: physicochemical; details: pH 7.4
Method: The lipophilicities of the ^99mTc-labeled complexes were evaluated by the distribution coefficient. The method for determining the distribution coefficient was as follows: 0.1 mL of the radiolabeled complex (3.7 MBq) was mixed with 0.9 mL of phosphate buffer (0.025 mol/L, pH 7.4) and 1 mL of n-octanol in a 5 mL centrifuge tube. The mixture was shaken on a vortex mixer at room temperature for 3 min and centrifuged at 5000 r/min for 5 min. Aliquots of 0.1 mL of both n-octanol and PBS were collected, and the radioactivity was determined with a γ-counter. The distribution coefficient was calculated as follows: Log D = lg[(counts per minute in n-octanol/counts per minute in PBS)]. Each group of measurements was carried out five times in parallel. The final results are expressed as the log D ± SD.

[5] = in vivo; cited from earlier work
[6] = test system: bacterial infection sites; parameters: method as in PMID 14960656, PMID 10774881, PMID 12900285, PMID 15093821, PMID 11337578; details: literature values; cited from earlier work

Substance | Abscess/Muscle ratio (target-to-nontarget ratio) (S. aureus-infected mice [3]) | Log D ± SD, [^99mTc][Tc(Ⅰ)]^+ Core [4] | Abscess/Blood ratio (S. aureus-infected mice [3]) | Log D ± SD, [^99mTc][Tc(Ⅴ)N]^2+ Core [4] | other results
[^99mTc]Tc-CN5UBI 29-41: ^99mTc complex of ligand CN5UBI 29-41 with the [^99mTc]Tc(I)^+ core (TGRAKRRMQYNRR; also: CN5 chelator, position not given here, 99mTc(I) complex; UniProt P62861 103-115, looked up, fragment) | 4.15 ± 0.49 | −2.66 ± 0.02 |  |  | SPECT image finding at infection site (S. aureus-infected mice [1]): accumulated at the site of bacterial infection; Abscess uptake [2]: 0.73 ± 0.05 %ID/g; Abscess/Blood ratio [2]: 0.59 ± 0.06; Abscess/Muscle ratio (target-to-nontarget ratio) [2]: 2.52 ± 0.22; Blood uptake [2]: 1.28 ± 0.12 %ID/g; Bone uptake [2]: 0.82 ± 0.19 %ID/g; Gallbladder uptake [2]: 0.15 ± 0.04 %ID; Heart uptake [2]: 0.61 ± 0.03 %ID/g; Kidney uptake [2]: 13.05 ± 1.24 %ID/g; Large Intestines uptake [2]: 0.62 ± 0.18 %ID/g
[^99mTc]TcN-CN6UBI 29-41: ^99mTc complex of ligand CN6UBI 29-41 with the [^99mTc][Tc(V)N]^2+ core (TGRAKRRMQYNRR; also: CN6 chelator, position not given here, 99mTc complex with [99mTc][Tc(V)N]2+ core; UniProt P62861 103-115, looked up, fragment) | 3.32 ± 0.99 |  | 0.70 ± 0.15 | −2.65 ± 0.03 | 
[^99mTc]TcN-CN9UBI 29-41: ^99mTc complex of ligand CN9UBI 29-41 with the [^99mTc][Tc(V)N]^2+ core (TGRAKRRMQYNRR; also: CN9 chelator, position not given here, 99mTc complex with [99mTc][Tc(V)N]2+ core; UniProt P62861 103-115, looked up, fragment) | 2.79 ± 0.82 |  | 0.70 ± 0.29 | −2.41 ± 0.03 | 
[^99mTc]TcN-CN7UBI 29-41: ^99mTc complex of ligand CN7UBI 29-41 with the [^99mTc][Tc(V)N]^2+ core (TGRAKRRMQYNRR; also: CN7 chelator, position not given here, 99mTc complex with [99mTc][Tc(V)N]2+ core; UniProt P62861 103-115, looked up, fragment) | 2.47 ± 0.47 |  | 0.58 ± 0.12 | −2.58 ± 0.04 | 
[^99mTc]Tc-CN6UBI 29-41: ^99mTc complex of ligand CN6UBI 29-41 with the [^99mTc]Tc(I)^+ core (TGRAKRRMQYNRR; also: CN6 chelator, position not given here, 99mTc(I) complex; UniProt P62861 103-115, looked up, fragment) | 3.48 ± 0.70 | −2.62 ± 0.03 | 0.75 ± 0.10 |  | 
[^99mTc]Tc-CN9UBI 29-41: ^99mTc complex of ligand CN9UBI 29-41 with the [^99mTc]Tc(I)^+ core (TGRAKRRMQYNRR; also: CN9 chelator, position not given here, 99mTc complex with [99mTc]Tc(I)+ core; UniProt P62861 103-115, looked up, fragment) | 2.62 ± 0.42 | −2.52 ± 0.01 | 0.69 ± 0.04 |  | 
[^99mTc]Tc-CN8UBI 29-41: ^99mTc complex of ligand CN8UBI 29-41 with the [^99mTc]Tc(I)^+ core (TGRAKRRMQYNRR; also: CN8 chelator, position not given here, 99mTc complex with [99mTc]Tc(I)+ core; UniProt P62861 103-115, looked up, fragment) | 2.64 ± 0.65 | −2.54 ± 0.01 | 0.66 ± 0.16 |  | 
[^99mTc]Tc-UBI 29-41: directly ^99mTc-labeled UBI 29-41, reported bacterial infection tracer; structure speculated (TGRAKRRMQYNRR; also: directly 99mTc-labeled, no chelator, structure speculative; UniProt P62861 103-115, looked up, fragment) |  |  |  |  | target-to-nontarget ratio at sterile inflammation sites [5]: 1.1–1.2; target-to-nontarget ratio at bacterial infection sites [6]: 1.7–4.7
